Reference: patent US20110262922, “APTAMER SANDWICH ASSAYS” (POSCO, published 2011)

Experiments:
ERBB2 (HER2) [1] = biological target: T1, ERBB2 (HER2) (UniProt P04626 P04626:23-652); assay: filter; +/-0.12; 40 mM HEPES pH 7.5, 120 mM NaCl, 5 mM KCl, 5 mM MgCl2, 0.002% tween-20, 37 C; details: tags: His-tagged; R&D Systems Cat# 1129-ER; label: 5'-32P
Method: (§1) Aptamers identified using the above SELEX process were amplified by PCR and cloned as described above. Up to fifty randomly picked plasmid clones were sequenced. To verify that cloned aptamers bind to IR or ERBB2, aptamers that had same sequence in the aptamer pool were tested for binding affinity. Briefly, aptamers were incubated with various concentrations of target His-tagged proteins and the target His-tagged proteins were captured on Talon bead. Radio labeled aptamers that were bound to target proteins were then detected by phosphoimager.
(§2) Specifically, Aptamer-protein equilibrium dissociation constants (Kd's) were determined by the nitrocellulose-filter binding method as described by White et al. in Mol. Ther., 2001, 4(6), 567-73. For all binding assays, aptamers were dephosphorylated using alkaline phosphatase (New England Biolab) and labeled at the 5′-end using T4 polynucleotide kinase (New England Biolabs, Beverly, Mass.) and [γ³²P]ATP (Amersham Pharmacia Biotech, Piscataway, N.J.) as described by Fitzwater et al., in Methods Enzymol, 1996, 267, 275-301. […] The fraction of bound aptamer was quantified with a PhosphorImager (Fuji FLA-5100 Image Analyzer, Tokyo, Japan). […]

ERBB2 (HER2) [2] = biological target: T1, ERBB2 (HER2); assay: filter; +/-1.25; same buffer, 37 C; details: tags: His-tagged; R&D Systems Cat# 1129-ER; label: 5'-32P
Method: as §1, §2

Insulin receptor (IR) [3] = biological target: T2, Insulin receptor (IR) (Homo sapiens, UniProt P06213-2;P06213-2 P06213-2:28-746,P06213-2:751-944); assay: filter; +/-0.26; same buffer, 5 mM MgCl2, 37 C; details: tags: His-tagged; R&D Systems Cat# 1544-IR; chain copies: 2; label: 5'-32P
Method: as §1, §2

Insulin receptor (IR) [4] = biological target: T2, Insulin receptor (IR); assay: filter; +/-0.78; same buffer, 5 mM MgCl2, 37 C; details: tags: His-tagged; R&D Systems Cat# 1544-IR; chain copies: 2; label: 5'-32P
Method: as §1, §2

Insulin receptor (IR) [5] = biological target: T2, Insulin receptor (IR); assay: FP; placeholder; details: tags: His-tagged; R&D Systems Cat# 1544-IR; chain copies: 2; label: 5'-32P
Insulin receptor (IR) [6] = biological target: T2, Insulin receptor (IR); assay: filter; +/-1.08; 40 mM HEPES pH 7.5, 120 mM NaCl, 5 mM KCl, 5 mM MgCl2, 0.002% tween-20, 37 C; not competing with IR-13; details: tags: His-tagged; R&D Systems Cat# 1544-IR; chain copies: 2; label: 5'-32P
ERBB2 (HER2) [7] = biological target: T1, ERBB2 (HER2); assay: filter; +/-0.39; same buffer, 37 C; details: tags: His-tagged; R&D Systems Cat# 1129-ER; label: 5'-32P
Method: as §1, §2

Insulin receptor (IR) [8] = biological target: T2, Insulin receptor (IR); assay: filter; +/-0.28; same buffer, 5 mM MgCl2, 37 C; details: tags: His-tagged; R&D Systems Cat# 1544-IR; chain copies: 2; label: 5'-32P
Method: as §1, §2

ERBB2 (HER2) [9] = biological target: T1, ERBB2 (HER2); assay: filter; +/-0.20; same buffer, 37 C; not competing with ERBB2-12; details: tags: His-tagged; R&D Systems Cat# 1129-ER; label: 5'-32P

T2 sequence (P06213 other isoform, or with tags, fused parts or gaps, chain 1 of 2): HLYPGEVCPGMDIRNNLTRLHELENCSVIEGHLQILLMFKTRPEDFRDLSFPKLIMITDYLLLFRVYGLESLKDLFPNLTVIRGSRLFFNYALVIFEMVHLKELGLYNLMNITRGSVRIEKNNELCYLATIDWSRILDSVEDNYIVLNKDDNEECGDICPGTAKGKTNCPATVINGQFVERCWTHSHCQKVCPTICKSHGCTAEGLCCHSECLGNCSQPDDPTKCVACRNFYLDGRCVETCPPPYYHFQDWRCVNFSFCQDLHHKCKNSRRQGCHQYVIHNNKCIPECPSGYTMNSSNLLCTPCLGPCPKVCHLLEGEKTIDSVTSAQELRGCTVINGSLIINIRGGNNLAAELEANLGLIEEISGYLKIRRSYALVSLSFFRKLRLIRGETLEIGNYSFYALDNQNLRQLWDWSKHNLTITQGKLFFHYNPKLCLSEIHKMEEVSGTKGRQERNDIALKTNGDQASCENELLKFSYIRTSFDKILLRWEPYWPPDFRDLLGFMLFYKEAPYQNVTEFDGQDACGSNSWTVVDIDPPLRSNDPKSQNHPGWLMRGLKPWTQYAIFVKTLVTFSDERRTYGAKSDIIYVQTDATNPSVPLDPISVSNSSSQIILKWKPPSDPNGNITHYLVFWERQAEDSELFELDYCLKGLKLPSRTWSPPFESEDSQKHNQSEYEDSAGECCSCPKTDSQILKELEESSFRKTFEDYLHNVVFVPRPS
T2 sequence (P06213 763-956, chain 2 of 2): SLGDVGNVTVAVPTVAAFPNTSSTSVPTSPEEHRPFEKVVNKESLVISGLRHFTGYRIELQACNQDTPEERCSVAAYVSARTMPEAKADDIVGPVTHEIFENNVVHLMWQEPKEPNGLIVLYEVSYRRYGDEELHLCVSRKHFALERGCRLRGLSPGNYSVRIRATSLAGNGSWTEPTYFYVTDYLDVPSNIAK

B1: ERBB2-12 (ssDNA)
DNA: GAGTGACCGTCTGCCTGTCCTGGCATGTTCGATGGAGGCCTTTGATTACAGCCCAGACAGCCACACCACCAGCC
Q: How did the Kd (ERBB2 (HER2) [1]) turn out when B1 was run?
A: 0.78 nM

B2: ERBB2-19 (ssDNA)
DNA: GAGTGACCGTCTGCCTGATTAGATGAAAGCGCATTCCAACAACAGATAATCTGAGGGCAGCCACACCACCAGCC
Q: For B2, which Kd (ERBB2 (HER2) [2]) is on record?
A: 15.8 nM

B3: IR-11 (ssDNA)
DNA: GAGTGACCGTCTGCCTGTAAGGTTTAAGCTTGGCCTAATGGTGCTATCAGGCTCAGCAGCCACACCACCAGCC
Q: How did the Kd (Insulin receptor (IR) [3]) turn out when B3 was run?
A: 5.48 nM

B4: IR-13 (ssDNA)
DNA: GAGTGACCGTCTGCCTGTTATCCACTATGGCTTCTCATTCAAATAAGTGCGATCGATCAGCCACACCACCAGCC
Q: How did the Kd (Insulin receptor (IR) [4]) turn out when B4 was run?
A: 4.83 nM

B5: IR-6 (ssDNA)
DNA: GAGTGACCGTCTGCCTGTGGGTACAGTCTTTAGCTTACACAGGCTCCTGAAGACGCACAGCCACACCACCAGCC
Q: Which Kd (Insulin receptor (IR) [5]) does the source give for B5 here?
A: 4.6 nM

Q: What about the Kd (Insulin receptor (IR) [6]) of the same binder?
A: 4.6 nM

B6: ERBB2-10 (ssDNA)
DNA: GAGTGACCGTCTGCCTGGTTAGACTGAACGCACTGAGGGCCGCAGCCTATCTGAAGGCAGCCACACCACCAGCC
Q: B6 was tested. Which Kd (ERBB2 (HER2) [7]) did it give?
A: 3.7 nM

B7: IR-25 (ssDNA)
DNA: GAGTGACCGTCTGCCTGAGATCCGACTGTTTACTGTTTAACAGCCGGCTGATGGACCCAGCCACACCACCAGCC
Q: B7 was tested. Which Kd (Insulin receptor (IR) [8]) did it give?
A: 13.3 nM

B8: ERBB2-1 (ssDNA)
DNA: GAGTGACCGTCTGCCTGATGTTAGAGTTTGCCTGAGTGCCTCGTAAGGGCGTAACAACAGCCACACCACCAGCC
Q: For B8, which Kd (ERBB2 (HER2) [9]) is on record?
A: 3.05 nM
